The source of these data is publication PMC3596254.

In this experiment the target is GFP-tagged T759A mutant DIAPH1 (murine pEGFP-mDia T751A) (murine) (UniProt O08808). The experiment in a line: co-IP.
Sequence of UniProt O08808 (O08808 whole entry T751A): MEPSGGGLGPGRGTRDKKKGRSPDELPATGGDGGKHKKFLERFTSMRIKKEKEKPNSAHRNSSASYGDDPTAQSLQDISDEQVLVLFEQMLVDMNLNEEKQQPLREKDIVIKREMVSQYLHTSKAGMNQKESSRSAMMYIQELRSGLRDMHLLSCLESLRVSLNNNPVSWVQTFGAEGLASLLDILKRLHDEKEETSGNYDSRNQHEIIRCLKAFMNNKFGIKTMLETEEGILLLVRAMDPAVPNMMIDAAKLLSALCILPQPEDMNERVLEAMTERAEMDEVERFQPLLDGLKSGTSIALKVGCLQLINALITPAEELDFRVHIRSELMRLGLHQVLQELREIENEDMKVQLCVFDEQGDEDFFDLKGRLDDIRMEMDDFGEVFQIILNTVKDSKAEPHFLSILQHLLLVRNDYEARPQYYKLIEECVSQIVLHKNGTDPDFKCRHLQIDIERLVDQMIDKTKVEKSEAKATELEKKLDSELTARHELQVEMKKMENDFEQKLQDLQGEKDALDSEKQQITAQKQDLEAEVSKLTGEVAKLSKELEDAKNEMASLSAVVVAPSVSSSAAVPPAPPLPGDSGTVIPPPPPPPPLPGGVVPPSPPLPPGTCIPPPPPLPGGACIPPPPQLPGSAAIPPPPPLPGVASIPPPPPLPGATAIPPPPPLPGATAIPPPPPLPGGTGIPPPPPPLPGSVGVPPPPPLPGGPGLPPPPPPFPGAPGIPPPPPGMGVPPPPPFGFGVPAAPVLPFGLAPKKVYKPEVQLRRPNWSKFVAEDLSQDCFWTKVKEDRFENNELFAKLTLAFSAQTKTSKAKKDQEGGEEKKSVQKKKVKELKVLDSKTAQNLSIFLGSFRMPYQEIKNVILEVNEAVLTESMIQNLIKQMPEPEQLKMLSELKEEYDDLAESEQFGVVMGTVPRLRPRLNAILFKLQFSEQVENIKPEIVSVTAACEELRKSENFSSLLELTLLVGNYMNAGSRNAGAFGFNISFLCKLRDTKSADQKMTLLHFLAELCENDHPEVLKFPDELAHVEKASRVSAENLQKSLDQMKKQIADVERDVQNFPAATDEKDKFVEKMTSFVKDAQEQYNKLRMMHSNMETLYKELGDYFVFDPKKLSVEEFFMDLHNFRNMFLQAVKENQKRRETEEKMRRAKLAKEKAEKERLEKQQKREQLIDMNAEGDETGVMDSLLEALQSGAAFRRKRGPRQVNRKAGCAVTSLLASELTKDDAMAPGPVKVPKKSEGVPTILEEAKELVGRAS

“Actin, β (from UniProt P60709 1-375) (natural protein)” registered a percent decrease of the co-precipitate against wild type of 86%. The substance “Kinesin heavy chain (from UniProt P33176 1-963) (natural protein)” displayed a percent decrease of the co-precipitate against wild type of 65%.
